Tested on: peptide library, one residue held at a place counted from the Y acceptor
Assay: relative phosphorylation of the sub-library (ratio to the mean residue at this position); higher = residue favoured
Method in brief: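 Biotinylated Tyr-centred peptide library mixtures, each fixing one residue at one position from −5 to +5, were incubated with purified recombinant kinases in 384-well plates for 90 min with 50 μM ATP plus γ-32P-ATP. Streptavidin membranes captured the peptides, which were rinsed and quantified by phosphorimaging and ImageQuant. At each position, intensities were divided by the sum of the 18 randomized residues (16 for the Ser/Thr-free library) and multiplied by that number. Each value is phosphorylation relative to the mean randomized residue.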

TNK2, construct: aa110-476, human (from UniProt Q07912)
relative phosphorylation
Conditions	at +1	at +2	at +3	at +4	at +5	at -1	at -2	at -3	at -4	at -5
A fixed	2.37	1	0.658	1.04	1.1	0.664	1.24	1.03	1.2	1.13
D fixed	0.799	0.461	0.257	0.749	1.13	0.346	0.917	0.791	0.737	0.812
E fixed	1.01	0.72	0.202	0.835	1.03	0.323	1	0.671	0.743	0.783
F fixed	0.716	1.39	1.03	0.929	1.22	0.934	0.737	0.901	1.05	0.971
G fixed	1.5	0.489	0.492	1.71	1.08	0.562	1.25	1.18	1.23	1.47
H fixed	0.684	0.724	0.513	1.01	0.897	1.59	1	0.972	1	1.05
I fixed	0.759	1.25	3.15	0.888	0.904	1.64	0.74	0.744	0.767	0.834
K fixed	0.587	0.915	0.316	0.774	0.694	1.3	0.894	1.07	1.2	1.12
L fixed	0.684	0.964	2.32	0.742	1.15	1.73	0.694	0.911	0.779	0.787
M fixed	1.37	1.03	1.07	1.02	0.97	1.26	0.69	0.924	0.89	0.815
N fixed	0.613	0.755	0.359	0.903	0.836	0.7	1.03	1.04	0.958	0.996
P fixed	0.233	1.26	0.881	1.55	1.16	0.809	1.69	1.36	1.3	1.22
Q fixed	1.5	1.03	0.437	0.873	0.955	1.15	1.21	1.03	1.17	0.966
R fixed	0.89	1.32	0.367	0.995	0.543	1.82	1.05	1.32	1.36	1.31
S fixed	1.18	1.02	0.543	1.21	1.01	0.626	1.16	1.12	0.824	0.952
T fixed	1.05	1.25	0.94	1.03	1.14	0.936	0.987	1.02	0.762	0.951
V fixed	1.04	1.32	2.39	0.846	0.949	0.951	0.952	0.825	0.785	0.755
W fixed	1.03	1.11	2.07	0.898	1.22	0.658	0.759	1.1	1.25	1.08
pThr fixed	0.667	1.05	0.311	0.814	0.654	0.486	0.969	0.721	0.716	0.775
pTyr fixed	0.727	2.16	0.495	0.959	1.03	0.669	0.714	0.904	0.888	1
